Data published in patent US20180296701A1.

Biological target: CAR (receptor of the wild-type Ad) (human) (UniProt P78310)
Assay: cell-based or functional assay

UniProt P78310, sequence (P78310 20-365): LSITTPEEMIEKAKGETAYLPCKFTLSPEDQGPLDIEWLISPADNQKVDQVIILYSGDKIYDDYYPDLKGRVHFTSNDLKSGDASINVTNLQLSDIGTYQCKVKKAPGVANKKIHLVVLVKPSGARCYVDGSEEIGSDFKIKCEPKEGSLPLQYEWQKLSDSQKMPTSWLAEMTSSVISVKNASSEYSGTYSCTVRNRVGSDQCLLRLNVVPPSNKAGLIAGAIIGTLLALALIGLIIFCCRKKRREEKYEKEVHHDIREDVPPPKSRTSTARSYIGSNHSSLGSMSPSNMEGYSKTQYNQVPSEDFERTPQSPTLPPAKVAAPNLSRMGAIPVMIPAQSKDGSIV

Substance: Ad knob protein
- decrease of intracellular introduction efficiency (GFP expression, flow cytometry) of wild-type Ad (naked dE1/GFP) in MIA PaCa-2 cells pre-treated with knob protein at 0.2 ug/mL: 76%
- decrease of intracellular introduction efficiency (GFP expression, flow cytometry) of wild-type Ad (naked dE1/GFP) in MIA PaCa-2 cells pre-treated with knob protein at 1 ug/mL: 92%
